In patent US20210388087A1 (Chugai, published 2021):
Numbering of substitutions follows the chain as printed. Numbers in names are those of the source.

T1: Human CD3eg linker (human)
T1 construct: Single chain: epsilon and gamma subunits of human CD3 joined by a 29-mer linker, Flag-tag at the C-terminus; also called recombinant human CD3
T1 chain: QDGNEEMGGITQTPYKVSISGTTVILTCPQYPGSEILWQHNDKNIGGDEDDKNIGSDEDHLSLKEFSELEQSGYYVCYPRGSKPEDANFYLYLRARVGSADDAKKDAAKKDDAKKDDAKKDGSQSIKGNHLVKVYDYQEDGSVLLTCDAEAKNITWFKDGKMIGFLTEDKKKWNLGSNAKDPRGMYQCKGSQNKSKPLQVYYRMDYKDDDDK

B1: H183/L072 VH G26Q (antibody, name in Kabat numbering, V domains shown)
VH: QVQLVESGGGLVQPGRSLRLSCAASQFTFSNAWMHWVRQAPGKGLEWVAQIKDKGNAYAAYYAPSVKGRFTISRDDSKNSIYLQMNSLKTEDTAVYYCHYVHYASASTVLPAFGVDAWGQGTTVTVSS
VL: DIVMTQSPLSLPVTPGEPASISCQASQELVHMNRNTYLHWYQQKPGQAPRLLIYKVSNRFPGVPDRFSGSGSGTDFTLKISRVEAEDVGVYYCAQGTSVPFTFGQGTKLEIK
B2: H183/L072 VH H35K (antibody, name in Kabat numbering, V domains shown)
VH: B1 VH with Q26G, H35K
VL: B1 VL
B3: H183/L072 VH G52cS (antibody, name in Kabat numbering, V domains shown)
VH: B1 VH with Q26G, G55S
VL: B1 VL
B4: H183/L072 VH H35I (antibody, name in Kabat numbering, V domains shown)
VH: B1 VH with Q26G, H35I
VL: B1 VL
B5: H183/L072 VH G100hA (antibody, name in Kabat numbering, V domains shown)
VH: B1 VH with Q26G, G114A
VL: B1 VL
B6: H183/L072 VH G52cA (antibody, name in Kabat numbering, V domains shown)
VH: B1 VH with Q26G, G55A
VL: B1 VL
B7: H183/L072 VH H35D (antibody, name in Kabat numbering, V domains shown)
VH: B1 VH with Q26G, H35D
VL: B1 VL
B8: H183/L072 VH H35M (antibody, name in Kabat numbering, V domains shown)
VH: B1 VH with Q26G, H35M
VL: B1 VL
B9: H183/L072 VH G100hM (antibody, name in Kabat numbering, V domains shown)
VH: B1 VH with Q26G, G114M
VL: B1 VL
B10: H183/L072 VH H35A (antibody, name in Kabat numbering, V domains shown)
VH: B1 VH with Q26G, H35A
VL: B1 VL
B11: H183/L072 VH G52cQ (antibody, name in Kabat numbering, V domains shown)
VH: B1 VH with Q26G, G55Q
VL: B1 VL
B12: H183/L072 VH G65I (antibody, name in Kabat numbering, V domains shown)
VH: B1 VH with Q26G, G68I
VL: B1 VL
B13: H183/L072 VH G26S (antibody, name in Kabat numbering, V domains shown)
VH: B1 VH with Q26S
VL: B1 VL
B14: H183/L072 VH G100hI (antibody, name in Kabat numbering, V domains shown)
VH: B1 VH with Q26G, G114I
VL: B1 VL
B15: H183/L072 VH G26R (antibody, name in Kabat numbering, V domains shown)
VH: B1 VH with Q26R
VL: B1 VL
B16: H183/L072 VH G52cE (antibody, name in Kabat numbering, V domains shown)
VH: B1 VH with Q26G, G55E
VL: B1 VL
B17: H183/L072 VH G52cM (antibody, name in Kabat numbering, V domains shown)
VH: B1 VH with Q26G, G55M
VL: B1 VL
B18: H183/L072 VH G52cW (antibody, name in Kabat numbering, V domains shown)
VH: B1 VH with Q26G, G55W
VL: B1 VL
B19: H183/L072 VH G52cF (antibody, name in Kabat numbering, V domains shown)
VH: B1 VH with Q26G, G55F
VL: B1 VL
B20: H183/L072 VH G52cY (antibody, name in Kabat numbering, V domains shown)
VH: B1 VH with Q26G, G55Y
VL: B1 VL
B21: H183/L072 VH G26V (antibody, name in Kabat numbering, V domains shown)
VH: B1 VH with Q26V
VL: B1 VL
B22: H183/L072 VH G52cN (antibody, name in Kabat numbering, V domains shown)
VH: B1 VH with Q26G, G55N
VL: B1 VL
B23: H183/L072 VH H35E (antibody, name in Kabat numbering, V domains shown)
VH: B1 VH with Q26G, H35E
VL: B1 VL
B24: H183/L072 VH G65M (antibody, name in Kabat numbering, V domains shown)
VH: B1 VH with Q26G, G68M
VL: B1 VL
B25: H183/L072 VH H35G (antibody, name in Kabat numbering, V domains shown)
VH: B1 VH with Q26G, H35G
VL: B1 VL
B26: H183/L072 VH G52cP (antibody, name in Kabat numbering, V domains shown)
VH: B1 VH with Q26G, G55P
VL: B1 VL
B27: H183/L072 VH G65L (antibody, name in Kabat numbering, V domains shown)
VH: B1 VH with Q26G, G68L
VL: B1 VL
B28: H183/L072 VH G52cV (antibody, name in Kabat numbering, V domains shown)
VH: B1 VH with Q26G, G55V
VL: B1 VL
B29: H183/L072 VH G52cI (antibody, name in Kabat numbering, V domains shown)
VH: B1 VH with Q26G, G55I
VL: B1 VL
B30: H183/L072 VH G52cL (antibody, name in Kabat numbering, V domains shown)
VH: B1 VH with Q26G, G55L
VL: B1 VL
B31: H183/L072 VH G26W (antibody, name in Kabat numbering, V domains shown)
VH: B1 VH with Q26W
VL: B1 VL
B32: H183/L072 VH G65A (antibody, name in Kabat numbering, V domains shown)
VH: B1 VH with Q26G, G68A
VL: B1 VL
B33: H183/L072 VH G52cT (antibody, name in Kabat numbering, V domains shown)
VH: B1 VH with Q26G, G55T
VL: B1 VL
B34: H183/L072 VH G52cR (antibody, name in Kabat numbering, V domains shown)
VH: B1 VH with Q26G, G55R
VL: B1 VL
B35: H183/L072 VH H35L (antibody, name in Kabat numbering, V domains shown)
VH: B1 VH with Q26G, H35L
VL: B1 VL
B36: H183/L072 VH G52cD (antibody, name in Kabat numbering, V domains shown)
VH: B1 VH with Q26G, G55D
VL: B1 VL
B37: H183/L072 VH G26Y (antibody, name in Kabat numbering, V domains shown)
VH: B1 VH with Q26Y
VL: B1 VL
B38: H183/L072 VH G26T (antibody, name in Kabat numbering, V domains shown)
VH: B1 VH with Q26T
VL: B1 VL
B39: H183/L072 VH G52cH (antibody, name in Kabat numbering, V domains shown)
VH: B1 VH with Q26G, G55H
VL: B1 VL
B40: H183/L072 VH H35N (antibody, name in Kabat numbering, V domains shown)
VH: B1 VH with Q26G, H35N
VL: B1 VL
B41: H183/L072 VH H35F (antibody, name in Kabat numbering, V domains shown)
VH: B1 VH with Q26G, H35F
VL: B1 VL
B42: H183/L072 VH G100hP (antibody, name in Kabat numbering, V domains shown)
VH: B1 VH with Q26G, G114P
VL: B1 VL
B43: H183/L072 VH G52cK (antibody, name in Kabat numbering, V domains shown)
VH: B1 VH with Q26G, G55K
VL: B1 VL
B44: H183/L072 VH G65P (antibody, name in Kabat numbering, V domains shown)
VH: B1 VH with Q26G, G68P
VL: B1 VL
B45: H183/L072 VH G100hL (antibody, name in Kabat numbering, V domains shown)
VH: B1 VH with Q26G, G114L
VL: B1 VL

Molecular target: T1, Human CD3eg linker
Assay: Biacore SPR, vs template H183/L072

Binder | fold change of affinity
B1 | 0.4 fold
B2 | 0 fold
B3 | 1 fold
B4 | 0 fold
B5 | 4.8 fold
B6 | 1.6 fold
B7 | 0 fold
B8 | 0 fold
B9 | 4.2 fold
B10 | 0 fold
B11 | 1.9 fold
B12 | 1 fold
B13 | 0.2 fold
B14 | 2.6 fold
B15 | 0.5 fold
B16 | 1.2 fold
B17 | 1.4 fold
B18 | 1.5 fold
B19 | 2 fold
B20 | 1.5 fold
B21 | 0 fold
B22 | 1.2 fold
B23 | 0 fold

Binder | fold change of affinity
B24 | 0.9 fold
B25 | 0 fold
B26 | 1.3 fold
B27 | 0.9 fold
B28 | 1.5 fold
B29 | 1.1 fold
B30 | 1.5 fold
B31 | 0.6 fold
B32 | 1.1 fold
B33 | 0.9 fold
B34 | 1.4 fold
B35 | 0 fold
B36 | 1.1 fold
B37 | 0.6 fold
B38 | 0.4 fold
B39 | 1.7 fold
B40 | 0 fold
B41 | 0 fold
B42 | 0.6 fold
B43 | 1.6 fold
B44 | 0.9 fold
B45 | 0.8 fold
